The nature of the data set: collision cross section of modified peptide (TIMS, N2, iRT-aligned); higher = larger / more extended gas-phase ion. The procedure:
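1/K0 was aligned run-wise to spiked iRT peptides and converted to CCS in N2 (Mason-Schamp). Values are the mean of 1-3 technical replicates for the most abundant feature at each charge state.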

Where [1] appears, read: charge state: 2, modification: Propionyl.
[2] abbreviates: charge state: 2, modification: Methyl (K).
Setting [3] is: charge state: 3, modification: Methyl (K).
The mark [4] stands for this setting: charge state: 2, modification: Nitro (Y).
The mark [5] stands for this setting: charge state: 2, modification: Trimethyl (K).
Where [6] appears, read: charge state: 3, modification: Trimethyl (K).
The mark [7] stands for this setting: charge state: 2, modification: Malonyl.
[8] abbreviates: charge state: 2, modification: Biotin.
Where [9] appears, read: charge state: 2, modification: Dimethyl (K).
The mark [10] stands for this setting: charge state: 3, modification: Dimethyl (K).
[11] abbreviates: charge state: 2, modification: Succinyl.
Where [12] appears, read: charge state: 3, modification: Succinyl.
[13] abbreviates: charge state: 2, modification: GlyGly (K).
Setting [14] is: charge state: 3, modification: GlyGly (K).
Where [15] appears, read: charge state: 3, modification: Malonyl.

± gives the standard deviation.

“IISSIEQKEENK [_IISSIEQK(Propionyl)EENK_]”: the collision cross section under setting [1] came out at 403.07 ± 0.65 Å². As for “FSAYIKNSNPALNDNLEK [_FSAYIK(Methyl (K))NSNPALNDNLEK_]”, the collision cross section under setting [2] stood at 493.27 Å² and the collision cross section under setting [3] worked out at 508.45 ± 2.8 Å². AAGQPYEQHAK [_AAGQPY(Nitro (Y))EQHAK_]: the collision cross section is, setting by setting: under setting [4], 375.04 ± 1.1 Å²; (charge state: 3, modification: Nitro (Y)) 431.09 ± 1.1 Å².

The sequence “AGPNASIISLKSDK [_AGPNASIISLK(Trimethyl (K))SDK_]” yielded a collision cross section under setting [5] of 422.03 ± 0.65 Å² and a collision cross section under setting [6] of 457.38 ± 2.4 Å².

With “TVSKVDDFLANEAK [_TVSK(Malonyl)VDDFLANEAK_]”, under setting [7], the collision cross section came out at 420.45 ± 0.57 Å².

Under setting [4], YTTNNSSEQR [_Y(Nitro (Y))TTNNSSEQR_] showed a collision cross section of 355.01 ± 0.17 Å². “LLFSNTAAQKLR [_LLFSNTAAQK(Methyl (K))LR_]”: the collision cross section is, setting by setting: under setting [2], 416.21 ± 1.5 Å²; under setting [3], 479.76 ± 3.4 Å². As to “GTITVSAQELKDNR [_GTITVSAQELK(Biotin)DNR_]”, the collision cross section is, setting by setting: under setting [8], 437.8 ± 0.23 Å²; (charge state: 3, modification: Biotin) 500.75 Å².

Regarding “SLGEPAAGEGSAKR [_SLGEPAAGEGSAK(Dimethyl (K))R_]”, the collision cross section is on record as 415.22 ± 2 Å² under setting [9] and 473.88 ± 2.6 Å² under setting [10]. “GEVGAGAGPGAQAGPSAKR [_GEVGAGAGPGAQAGPSAK(Methyl (K))R_]”: the collision cross section is reported as 422.57 ± 1.8 Å² under setting [2] and 489.3 ± 3.6 Å² under setting [3]. In turn, CQGGQETQEYR [_CQGGQETQEY(Nitro (Y))R_] displayed a collision cross section under setting [4] of 375.36 ± 1.3 Å². “IPQEKCILQTDVK [_IPQEK(Crotonyl)CILQTDVK_]” displayed a collision cross section (charge state: 2, modification: Crotonyl) of 433.54 Å². As to “FSAYIKNSNPALNDNLEK [_FSAYIK(Succinyl)NSNPALNDNLEK_]”, the collision cross section is 492.09 ± 3.4 Å² under setting [11] and 527.54 ± 2 Å² under setting [12].

As for “ALASIDSKLNQAK [_ALASIDSK(Succinyl)LNQAK_]”, the collision cross section is, setting by setting: under setting [11], 408.18 ± 0.54 Å²; under setting [12], 477.06 Å². “LEEVTGKLQVAR [_LEEVTGK(Propionyl)LQVAR_]” showed a collision cross section under setting [1] of 394.4 ± 1.3 Å². LEQVEKELLR [_LEQVEK(Biotin)ELLR_] yielded a collision cross section under setting [8] of 410.78 Å².

Regarding “VNIGQGSHPQKVK [_VNIGQGSHPQK(Dimethyl (K))VK_]”, the collision cross section was 407.47 ± 1.1 Å² under setting [9] and 469.28 Å² under setting [10].

The sequence “TQAEGQGQGRGLGLVSAVR [_TQAEGQGQGR(Citrullination (R))GLGLVSAVR_]” yielded a collision cross section (charge state: 3, modification: Citrullination (R)) of 549.33 ± 0.79 Å². For the sequence “LLIVSTTPYSEKDTK [_LLIVSTTPYSEK(Dimethyl (K))DTK_]”, the collision cross section is 459.41 ± 1.9 Å² under setting [9] and 505.24 ± 1.6 Å² under setting [10]. “SYGIPYIETSAK [_SY(Phospho (Y))GIPYIETSAK_]”: the collision cross section (charge state: 2, modification: Phospho (Y)) came to 390.55 ± 0.64 Å². For the sequence “AGPNASIISLKSDK [_AGPNASIISLK(GlyGly (K))SDK_]”, the collision cross section under setting [13] amounted to 420.97 ± 0.85 Å² and the collision cross section under setting [14] came to 488.88 ± 2 Å². Consider ITASLCDLKSR [_ITASLCDLK(Methyl (K))SR_], for which the collision cross section is, setting by setting: under setting [2], 398.61 Å²; under setting [3], 456.95 ± 2.7 Å². Turning to “TVSKVDDFLANEAK [_TVSK(Trimethyl (K))VDDFLANEAK_]”, the collision cross section is recorded as 424.19 ± 1.1 Å² under setting [5] and 482.88 ± 1.6 Å² under setting [6].

Turning to “GGGDRGGFGPGK [_GGGDR(Citrullination (R))GGFGPGK_]”, the collision cross section (charge state: 2, modification: Citrullination (R)) is 334.18 ± 0.75 Å².

As to “VLTANSNPSSPSAAKR [_VLTANSNPSSPSAAK(Succinyl)R_]”, the collision cross section was found to be 430.61 ± 1.1 Å² under setting [11] and 526.23 ± 1.1 Å² under setting [12]. As for “DDSFLGKLGGTLAR [_DDSFLGK(Dimethyl (K))LGGTLAR_]”, the collision cross section under setting [9] was 416.68 ± 0.75 Å² and the collision cross section under setting [10] came out at 473.5 ± 1.2 Å². On to “AAINQKLIETGER [_AAINQK(Butyryl)LIETGER_]”, for which the collision cross section (charge state: 2, modification: Butyryl) stood at 410.95 ± 1.7 Å². With “VFSIISSEKELK [_VFSIISSEK(Trimethyl (K))ELK_]”, the collision cross section is, setting by setting: under setting [5], 421.37 ± 1.1 Å²; under setting [6], 454.68 ± 1.8 Å². In turn, “ANEKTESSSAQQVAVSR [_ANEK(Trimethyl (K))TESSSAQQVAVSR_]” gave a collision cross section under setting [6] of 495.46 ± 1.6 Å².

In turn, “LTSLNVKYNNDK [_LTSLNVK(Propionyl)YNNDK_]” showed a collision cross section under setting [1] of 410.81 ± 0.38 Å². In the case of LTEKELAEAASK [_LTEK(Malonyl)ELAEAASK_], the collision cross section under setting [7] is on record as 390.08 ± 1.1 Å² and the collision cross section under setting [15] is 448.74 ± 2.2 Å².

With “SLKLNTAEDAK [_SLK(Dimethyl (K))LNTAEDAK_]”, the collision cross section is, setting by setting: under setting [9], 369.7 ± 0.36 Å²; under setting [10], 468.91 ± 1.6 Å². In the case of LTEKELAEAASK [_LTEK(Biotin)ELAEAASK_], the collision cross section under setting [8] came out at 418.47 ± 3 Å².

On to “IVSGKDYNVTANSK [_IVSGK(Malonyl)DYNVTANSK_]”, for which the collision cross section by setting is: under setting [7], 407.96 ± 0.037 Å²; under setting [15], 465.84 ± 1.8 Å². With “KYEEIDNAPEER [_K(GlyGly (K))YEEIDNAPEER_]”, the collision cross section reads like this: under setting [13], 416.44 ± 0.85 Å²; under setting [14], 499.05 ± 3 Å².

For SDDESSQKDIK [_SDDESSQK(Formyl)DIK_], the collision cross section (charge state: 2, modification: Formyl) was determined as 368.14 ± 1.1 Å².

As for ISALQGKLSK [_ISALQGK(GlyGly (K))LSK_], the collision cross section by setting is: under setting [13], 369.61 ± 1 Å²; under setting [14], 430.51 ± 2 Å². For “GTVPDDAVEALADSLGKK [_GTVPDDAVEALADSLGK(Dimethyl (K))K_]”, the collision cross section is, setting by setting: under setting [9], 485.51 ± 1.7 Å²; under setting [10], 525.76 Å².

For “RGFGFGGFAISAGK [_R(Methyl (R))GFGFGGFAISAGK_]”, for the setting “charge state: 3, modification: Methyl (R)”, the collision cross section is given as 488.52 ± 3.4 Å². Sequence “AGPNASIISLKSDK [_AGPNASIISLK(Succinyl)SDK_]” gave a collision cross section under setting [11] of 414.91 ± 0.86 Å². Sequence “GETASKLQSEISR [_GETASK(Succinyl)LQSEISR_]” yielded a collision cross section under setting [11] of 399.77 ± 2 Å². As for “SEASSEFAKK [_SEASSEFAK(hydroxyisobutyryl)K_]”, the collision cross section (charge state: 2, modification: hydroxyisobutyryl) was 356.42 ± 0.78 Å². YEATSVQQK [_Y(Nitro (Y))EATSVQQK_] returned a collision cross section under setting [4] of 342.71 ± 0.55 Å².

As to GSELQNYFTK [_GSELQNY(Nitro (Y))FTK_], the collision cross section under setting [4] turned out to be 363.07 ± 0.55 Å².

As for “GTITVSAQELKDNR [_GTITVSAQELK(Gluratylation)DNR_]”, the collision cross section reads like this: (charge state: 2, modification: Glutarylation) 422.99 ± 0.48 Å²; (charge state: 3, modification: Glutarylation) 483.37 ± 1.7 Å². On to “GTVPDDAVEALADSLGKK [_GTVPDDAVEALADSLGK(GlyGly (K))K_]”, for which the collision cross section is 485.77 ± 1.3 Å² under setting [13] and 534.99 ± 1.1 Å² under setting [14]. Take “LGVATVAKGVCGACK [_LGVATVAK(Methyl (K))GVCGACK_]”: the collision cross section is, setting by setting: under setting [2], 433.3 ± 0.37 Å²; under setting [3], 457.05 ± 3.9 Å². Under setting [7], LDEKENLSAK [_LDEK(Malonyl)ENLSAK_] showed a collision cross section of 361.65 ± 0.75 Å².

These data come from the supplement of paper PMC10598134.
